Assay results taken from patent US20030061635A1, “Pollen-specific novel calmodulin-binding protein, NPG1 (No Pollen Germination1), promoter, coding sequences and methods for using the same” (priority 2001, published 2003).

B1: AtNPG1: Arabidopsis NPG1, protein of 704 amino acids, SEQ ID NO:10, bacterially expressed as T7 tag fusion (protein, listed as Arabidopsis thaliana)
chain: MLGNQSADFSEKGEDEIVRQLCANGICMKTTEVEAKLDEGNIQEAESSLREGLSLNFEEARALLGRLEYQRGNLEGALRVFEGIDLQAAIQRLQVSVPLEKPATKKNRPREPQQSVSQHAANLVLEAIYLKAKSLQKLGRITEAAHECKSVLDSVEKIFQQGIPDAQVDNKLQETVSHAVELLPALWKESGDYQEAISAYRRALLSQWNLDNDCCARIQKDFAVFLLHSGVEASPPSLGSQIEGSYIPRNNIEEAILLLMILLKKFNLGKAKWDPSVFEHLTFALSLCSQTAVLAKQLEEVMPGVFSRIERWNTLALSYSAAGQNSAAVNLLRKSLHKHEQPDDLVALLLAAKLCSEEPSLAAEGTGYAQRAINNAQGMDEHLKGVGLRMLGLCLGKQAKVPTSDFERSRLQSESLKALDGAIAFEHNNPDLIFELGVQYAEQRNLKAASRYAKEFIDATGGSVLKGWRFLALVLSAQQRFSEAEVVTDAALDETAKWDQGPLLRLKAKLKISQSNPTEAVETYRYLLALVQAQRKSFGPLRTLSQMEEDKVNEFEVWHGLAYLYSSLSHWNDVEVCLKKAGELKQYSASMLHTEGRMWEGRKEFKPALAAFLDGLLLDGSSVPCKVAVGALLSERGKDHQPTLPVARSLLSDALRIDPTNRKAWYYLGMVHKSDGRIADATDCFQAASMLEESDPIESFSTIL
modifications: T7 tag fusion
B2: NPG1: maize pollen-specific calmodulin-binding protein, 659 amino acid residues, about 72 kDa, SEQ ID NO:1 (protein)
chain: MPLIRYYVDHVHVAVEARALLGRLEFQKGNVEVALRVFDGIDLQAAIQQFQPSLSDKTPSKKGRTKSEIPSSVPQNNPASLVLEAIYLKSLSLQKLGKSTEAANQCKSVLDSVESIFQNGAPDIEQKLQETVNKSVELLPEAWKHAGSNQEALASYRRALLSPWNLDDECRTRVQKRFASFLLYXTNIDWSPPSMAQQVEGCFVPKNSVEEAVLLLMVVLRSWYQGKTHWDPSVMEHLTYALSLCGEPLVLAKQLEEVLPGVYPRTERWATLALCYYVAGQKDVALNFLRKSLNKLENPNDVLALLLAAKICSKERHLASEGVEYARRVIACAESSDPHLKSVGLHFLGSCLGNKSKVVSSDYQRSLLQTETLKSFAESIGLNRYNADLIFDMGVEYAEQRNMNAALRCAKEFIEATGGSVSKGWRLLALILSAQQRFSEAEVATDAALDETAKLDQGSLLRVKAKLKVAQSSPMEAVEAYRALLALVQAQKNSPGGSCKSATEDADGSVSEFEIWQGLANLYSSLSYWRDAEICLNKARALKLYSAATLHAEGYMHEARDQTTDALAAYVNAFSTELEHVPSKVAIGAMLSKQGPRFLPAARCFLSDALRVEPTNRMAWLYLGKVHRSDGRISDAADCFQAAVMLEESDPVESFSSLS
modifications: X: residue not identified in the source

Legend:
[1] = tested on: Arabidopsis CaM isoform-2, -4 and -6; test: Blot overlay of purified AtNPG1 with horseradish peroxidase labeled Arabidopsis CaM isoforms; type: binding, Arabidopsis thaliana; settings: absence or presence of calcium
Procedure: HRP was conjugated to CaM and used in blot overlay assays according to the procedure described by Lee et al. (1999) BBA 1433:56-67. Briefly, the Arabidopsis CaM2 was incubated in 25 mM Tris-HCl, pH 7, 2 mM EGTA, and 0.1 M DTT at 55° C. for 1.5 h and the reduced CaM was extensively dialyzed against phosphate-buffered saline at 4° C. Maleimide-activated HRP (Pierce Biotechnology, Inc., Rockford, Ill.) and reduced CaM were incubated at a molar ratio of 1:1 in phosphate-buffered saline at room temperature for 1.5 h. The resulting HRP-CaM complex was verified on a denaturing gel and used in blot-overlay assays. Protein blots were prepared as described above, rinsed in TBST (TBS containing 0.1% (v/v) Tween 20), and blocked by incubating in TBST plus 7% (w/v) non-fat dry milk overnight. The blocked membranes were washed three times, 5 min each, with TBST. After equilibration in the overlay buffer (50 mM imidazole-HCl, pH 7.5, and 150 mM NaCl) for 1 h, the membranes were incubated for 1 h in overlay buffer containing 0.1% gelatin and […] HRP-CaM. The HRP-CaM overlay blots were washed sequentially in three buffers. Wash with each buffer was performed five times for 5 min each. […] The proteins that bound to HRP-CaM were detected by immersing the blots in a substrate solution as above. […]

CaM-Sepharose beads = test: Bacterially expressed AtNPG1 binding to CaM-Sepharose beads; settings: eluted with EGTA-containing buffer
Procedure: A 2.0 kb EcoRI fragment of AtNPG1 cDNA containing the entire coding region was subcloned into pET28a and the orientation of the cDNA was confirmed by restriction analysis and sequencing. Induction of fusion protein, its purification on CaM Sepharose column and detection with horseradish peroxidase CaM isoforms was performed essentially as described earlier (Reddy and Reddy (2000) J. Biol. Chem. 275:35457-35470).

biotinylated CaM = target: T1, biotinylated CaM (Bos taurus, UniProt P62157); test: Blot overlay of fusion proteins with biotinylated CaM; type: binding; settings: in the presence of Ca2+
T1 construct: purchased Calbiochem-Novabiochem (San Diego, Calif.)
Procedure: Soluble and insoluble proteins from the induced and un-induced cultures were separated on 12% SDS-polyacrylamide gels and blotted as described above. To detect the binding of the expressed proteins to ^35S-labeled AtCaM, duplicate blots were blocked for 15 min in TBS (50 mM Tris-HCl, pH 7.5, 150 mM NaCl) containing 5 mM of either CaCl2 or EGTA and 1% nonfat dry milk. The blots were then incubated for 12 h in a mixture of ^35S-labeled AtCaM isoforms at […] in the same buffers as above. The filters were then washed with the corresponding buffer and dried before exposing to X-ray film. Binding to biotinylated CaM was detected by blocking the blots in 3% gelatin in TBS/Ca/Mg or TBS/EGTA/Mg (50 mM Tris-HCl, pH 7.5, 50 mM MgCl2, 150 mM NaCl, and 5 mM of either CaCl2 or EGTA) at 30° C. The blots were then incubated in […] biotinylated CaM for 2 h in TBS/Ca/Mg or TBS/EGTA/Mg containing 0.1% Tween 20 and 1% gelatin followed by three washes of 10 min each in the corresponding buffers above. The blots were then incubated in Vectastain ABC.HRP in TBS/Ca/Mg or TBS/EGTA/Mg for 30 min, washed 3 times, 10 min each, with the above buffer and the CaM-binding proteins were detected colorimetrically in a substrate solution (0.8 mg/ml diaminobenzidine, 0.4 mg/ml NiCl2, and 0.009% H2O2 in 100 mM Tris-HCl, pH 7.5).

[2] = target: T2, HRP-CaM (Arabidopsis CaM2) (Arabidopsis thaliana, UniProt P0DH97); test: HRP-CaM blot overlay assay; type: binding
T2 construct: made in house; host or cells: E. coli BL21(DE3)
Procedure: HRP was conjugated to CaM and used in blot overlay assays according to the procedure described by Lee et al. (1999) BBA 1433:56-67. Briefly, the Arabidopsis CaM2 was incubated in 25 mM Tris-HCl, pH 7, 2 mM EGTA, and 0.1 M DTT at 55° C. for 1.5 h and the reduced CaM was extensively dialyzed against phosphate-buffered saline at 4° C. Maleimide-activated HRP (Pierce Biotechnology, Inc., Rockford, Ill.) and reduced CaM were incubated at a molar ratio of 1:1 in phosphate-buffered saline at room temperature for 1.5 h. The resulting HRP-CaM complex was verified on a denaturing gel and used in blot-overlay assays. Protein blots were prepared as described above, rinsed in TBST (TBS containing 0.1% (v/v) Tween 20), and blocked by incubating in TBST plus 7% (w/v) non-fat dry milk overnight. The blocked membranes were washed three times, 5 min each, with TBST. […] The proteins that bound to HRP-CaM were detected by immersing the blots in a substrate solution as above.
Maize pollen proteins were extracted in a buffer containing 50 mM Tris-HCl, pH 7.4, 250 mM sucrose, 5 mM DTT, and complete protease inhibitor mixture. […] The absorbance of the eluted fractions was recorded at 235 and 280 nm to compare the elution profile of protein with EGTA. […]

CaM-Sepharose = target: T3, CaM-Sepharose (Bos taurus, UniProt P62157); test: Native NPG1 from maize pollen on CaM-Sepharose column / pull-down with CaM-Sepharose beads; type: binding, bovine; settings: bound with Ca2+, eluted with EGTA; maize pollen extract
T3 construct: purchased Amersham Pharmacia Biotech UK Ltd., Little Chalfont, Buckinghamshire, UK
Procedure: Maize pollen proteins were extracted in a buffer containing 50 mM Tris-HCl, pH 7.4, 250 mM sucrose, 5 mM DTT, and complete protease inhibitor mixture. The extract was first centrifuged at 14,000×g for 20 min and then at 100,000×g for 15 min at 4° C. to obtain the supernatant containing soluble proteins. Prior to loading the supernatant onto the CaM-Sepharose column (Amersham Pharmacia Biotech UK Ltd., Little Chalfont, Buckinghamshire, UK) the concentration of Ca^2+ was adjusted to 1.25 mM. The flow-through was collected and saved. The column was washed thoroughly with binding buffer (50 mM Tris-HCl, pH 7.5, 150 mM NaCl, 1.25 mM CaCl2) to remove unbound proteins. Washes equivalent to 1-bed volume of the column were collected and saved. The CaM-binding proteins were eluted with elution buffer (50 mM Tris-HCl, pH 7.5, 150 mM NaCl, 5 mM EGTA). The absorbance of the eluted fractions was recorded at 235 and 280 nm to compare the elution profile of protein with EGTA. Initial soluble extract, flow-through, wash fraction, and eluted protein were separated on three denaturing gels. One gel was stained with Coomassie Blue and the other two were blotted onto nitrocellulose membranes and probed with NPG1-specific antibody or HRP-CaM.
[…] of pollen soluble proteins prepared as described above were mixed and incubated with 0.2 ml of CaM-Sepharose beads at room temperature for 30 min. […]

35S-labeled AtCaM = test: Blot overlay of bacterially expressed maize NPG1 fusion proteins with 35S-CaM; type: binding, Arabidopsis thaliana; settings: in the presence of EGTA
Procedure: The 1.2-kb cDNA insert (named P3) containing the coding region for 242 amino acids in the carboxyl-terminal region was cloned in-frame into a pET28b expression vector. For mapping the CaM-binding domain, several truncated constructs were prepared in a pET vector. The P3 cDNA in pET28 was digested with either NcoI or BamHI to release a 168- or 717-bp fragment corresponding to the 5′ end of the cDNA. The NcoI and BamHI fragments were cloned into pET28b vector digested with the respective enzymes to generate P3/NcoI and P3/BamHI clones. The P3 clones lacking either NcoI or BamHI fragments were religated to generate PΔNcoI and PΔBamHI expression clones. […]
Soluble and insoluble proteins from the induced and un-induced cultures were separated on 12% SDS-polyacrylamide gels and blotted as described above. […] Binding to biotinylated CaM was detected by blocking the blots in 3% gelatin in TBS/Ca/Mg or TBS/EGTA/Mg (50 mM Tris-HCl, pH 7.5, 50 mM MgCl2, 150 mM NaCl, and 5 mM of either CaCl2 or EGTA) at 30° C. […] The blots were then incubated in Vectastain ABC.HRP in TBS/Ca/Mg or TBS/EGTA/Mg for 30 min, washed 3 times, 10 min each, with the above buffer and the CaM-binding proteins were detected colorimetrically in a substrate solution (0.8 mg/ml diaminobenzidine, 0.4 mg/ml NiCl2, and 0.009% H2O2 in 100 mM Tris-HCl, pH 7.5).

Row | Molecule | binding to Arabidopsis CaM isoforms in blot overlay [1] | binding to CaM-Sepharose beads (CaM-Sepharose beads) | binding to biotinylated CaM (biotinylated CaM) | detection by HRP-CaM in blot overlay [2] | binding of native protein to CaM-Sepharose (CaM-Sepharose) | binding to CaM (35S-labeled AtCaM)
1 | B1 | bound three Arabidopsis CaM isoforms in a calcium-dependent manner | bound CaM-Sepharose beads in a calcium-dependent manner |  |  |  | 
2 | B2 |  |  | did not bind to biotinylated CaM | also detected by HRP-CaM | binds CaM in the presence of Ca^2+ | No binding to CaM was observed
